The values that follow are results of earlier work, collected in patent US9889085B1, “Therapeutic methods for the treatment of diabetes and related conditions for patients with high baseline HbA1c” (Intarcia Therapeutics, Inc., priority 2014, dated 2018).

The conditions of this data set: in vivo.

Turning to EGTFTSDVSSYLEGQAAKEFIAWLVKGR [GLP-1], the half-life entry is “approximately 2 minutes”.
Turning to “PYY: 36 amino acid residue peptide amide”, the half-life entry is on record as “approximately 8 minutes”.
